The labels stand for the following.
B1: cytochrome b of CIII2 (natural protein, Rhodobacter capsulatus)
chain: MSGIPHDHYEPKTGIEKWLHDRLPIVGLVYDTIMIPTPKNLNWWWIWGIVLAFTLVLQIVTGIVLAMHYTPHVDLAFASVEHIMRDVNGGWAMRYIHANGASLFFLAVYIHIFRGLYYGSYKAPREITWIVGMVIYLLMMGTAFMGYVLPWGQMSFWGATVITGLFGAIPGIGPSIQAWLLGGPAVDNATLNRFFSLHYLLPFVIAALVAIHIWAFHTTGNNNPTGVEVRRTSKADAEKDTLPFWPYFVIKDLFALALVLLGFFAVVAYMPNYLGHPDNYVQANPLSTPAHIVPEWYFLPFYAILRAFAADVWVVILVDGLTFGIVDAKFFGVIAMFGAIAVMALAPWLDTSKVRSGAYRPKFRMWFWFLVLDFVVLTWVGAMPTEYPYDWISLIASTYWFAYFLVILPLLGATEKPEPIPASIEEDFNSHYGNPAE

The data set “cryo-EM structure” deals with the molecule itself. As to the kind of experiment: cryo-EM structure.
The data set “cytochrome b of CIII2” concerns the target B1. As to the kind of experiment: cryo-EM structure.

On to B1, for which the binding result in “cryo-EM structure” is given as “binds”.

B2: Rieske FeS protein of CIII2 (natural protein, Rhodobacter capsulatus)
chain: MSHAEDNAGTRRDFLYHATAATGVVVTGAAVWPLINQMNASADVKAMASIFVDVSAVEVGTQLTVKWRGKPVFIRRRDEKDIELARSVPLGALRDTSAENANKPGAEATDENRTLPAFDGTNTGEWLVMLGVCTHLGCVPMGDKSGDFGGWFCPCHGSHYDSAGRIRKGPAPRNLDIPVAAFVDETTIKLG
Consider B2, for which the binding result with cytochrome b of CIII2 is “binds”.

These data come from publication doi:10.1101/2020.06.27.175620 (bioRxiv, 2020).
